Assay results published in the supplement of paper PMC10567573.

B1: SPATS1 (parent)
chain: GRKKYDIDPRNGIPKLTPGDNPYM
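Further: lentivirally expressed fusions sorted by FACS into six bins by GFP to DsRed ratio, PSI derived from sequencing read proportions per bin multiplied by bin number.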

Variants of: B1
Experiment: protein stability index of a GFP-peptide fusion (GPS, HEK-293T) (PSI 1-6); higher = more stable
Conditions: c terminus: a fixed tail appended
With GRKKYDIDPRNGIPKLYPGDNPYM [T17Y] the protein stability index was 2.89. For GRKKYDIDPRNGIPKLSPGDNPYM [T17S], the protein stability index was 4.08. With GRKKYDIDPRNGIPKLGPGDNPYM [T17G] the protein stability index was 3.48. GRKKYDIDPRNGIPKLFPGDNPYM [T17F] gave a protein stability index of 2.72. With GRKKYDIDPRNGIPKLDPGDNPYM [T17D] the protein stability index was 3.32. GRKKYDIDPRNGIPKLWPGDNPYM [T17W] showed a protein stability index of 2.47. Work on GRKKYDIDPRNGIPKLLPGDNPYM [T17L] yielded a protein stability index of 3.31. GRKKYDIDPRNGIPKLMPGDNPYM [T17M] showed a protein stability index of 3.02. In the case of GRKKYDIDPRNGIPKLPPGDNPYM [T17P], the protein stability index is reported as 3.23. In the case of GRKKYDIDPRNGIPKLCPGDNPYM [T17C], the protein stability index is reported as 3.13. GRKKYDIDPRNGIPKLEPGDNPYM [T17E] showed a protein stability index of 4.33. GRKKYDIDPRNGIPKLNPGDNPYM [T17N] gave a protein stability index of 3.48. Work on GRKKYDIDPRNGIPKLVPGDNPYM [T17V] yielded a protein stability index of 3.2. With GRKKYDIDPRNGIPKLQPGDNPYM [T17Q] the protein stability index was 4.21. Variant GRKKYDIDPRNGIPKLKPGDNPYM [T17K] has a protein stability index of 3.57. Variant GRKKYDIDPRNGIPKLRPGDNPYM [T17R] has a protein stability index of 2.95. In the case of GRKKYDIDPRNGIPKLAPGDNPYM [T17A], the protein stability index is reported as 3.58. For GRKKYDIDPRNGIPKLIPGDNPYM [T17I], the protein stability index was 3.19. In the case of GRKKYDIDPRNGIPKLHPGDNPYM [T17H], the protein stability index is reported as 3.34. Work on GRKKYDIDPRNGIPKLTPGDQPYM [N21Q] yielded a protein stability index of 3.67. Work on GRKKYDIDPRNGIPKLTPGDWPYM [N21W] yielded a protein stability index of 2.63. For GRKKYDIDPRNGIPKLTPGDGPYM [N21G], the protein stability index was 3.96. Work on GRKKYDIDPRNGIPKLTPGDKPYM [N21K] yielded a protein stability index of 3.51. Work on GRKKYDIDPRNGIPKLTPGDLPYM [N21L] yielded a protein stability index of 2.88. Variant GRKKYDIDPRNGIPKLTPGDCPYM [N21C] has a protein stability index of 3.34. In the case of GRKKYDIDPRNGIPKLTPGDPPYM [N21P], the protein stability index is reported as 3.54. In the case of GRKKYDIDPRNGIPKLTPGDVPYM [N21V], the protein stability index is reported as 3.14. For GRKKYDIDPRNGIPKLTPGDHPYM [N21H], the protein stability index was 3.33. In the case of GRKKYDIDPRNGIPKLTPGDFPYM [N21F], the protein stability index is reported as 2.78. In the case of GRKKYDIDPRNGIPKLTPGDEPYM [N21E], the protein stability index is reported as 4.6. GRKKYDIDPRNGIPKLTPGDDPYM [N21D] showed a protein stability index of 4.23. Variant GRKKYDIDPRNGIPKLTPGDTPYM [N21T] has a protein stability index of 3.46. For GRKKYDIDPRNGIPKLTPGDYPYM [N21Y], the protein stability index was 3.06. With GRKKYDIDPRNGIPKLTPGDIPYM [N21I] the protein stability index was 3.5. In the case of GRKKYDIDPRNGIPKLTPGDMPYM [N21M], the protein stability index is reported as 3.32. With GRKKYDIDPRNGIPKLTPGDAPYM [N21A] the protein stability index was 3.84. With GRKKYDIDPRNGIPKLTPGDRPYM [N21R] the protein stability index was 3.41. In the case of GRKKYDIDPRNGIPKLTPGDSPYM [N21S], the protein stability index is reported as 3.72. With GRKKYDIDPRNGIPKLTPGDNPNM [Y23N] the protein stability index was 4.43. GRKKYDIDPRNGIPKLTPGDNPTM [Y23T] showed a protein stability index of 4.6. Work on GRKKYDIDPRNGIPKLTPGDNPLM [Y23L] yielded a protein stability index of 4.48. GRKKYDIDPRNGIPKLTPGDNPMM [Y23M] gave a protein stability index of 3.82. Variant GRKKYDIDPRNGIPKLTPGDNPPM [Y23P] has a protein stability index of 4.41. GRKKYDIDPRNGIPKLTPGDNPIM [Y23I] showed a protein stability index of 3.72. With GRKKYDIDPRNGIPKLTPGDNPHM [Y23H] the protein stability index was 3.93. GRKKYDIDPRNGIPKLTPGDNPEM [Y23E] gave a protein stability index of 4.61. With GRKKYDIDPRNGIPKLTPGDNPQM [Y23Q] the protein stability index was 4.56. With GRKKYDIDPRNGIPKLTPGDNPRM [Y23R] the protein stability index was 4.34. With GRKKYDIDPRNGIPKLTPGDNPKM [Y23K] the protein stability index was 4.41. GRKKYDIDPRNGIPKLTPGDNPAM [Y23A] gave a protein stability index of 4.3. For GRKKYDIDPRNGIPKLTPGDNPGM [Y23G], the protein stability index was 4.04. In the case of GRKKYDIDPRNGIPKLTPGDNPVM [Y23V], the protein stability index is reported as 4.18. Work on GRKKYDIDPRNGIPKLTPGDNPFM [Y23F] yielded a protein stability index of 3.37. GRKKYDIDPRNGIPKLTPGDNPWM [Y23W] gave a protein stability index of 3.05. With GRKKYDIDPRNGIPKLTPGDNPDM [Y23D] the protein stability index was 4.84. GRKKYDIDPRNGIPKLTPGDNPCM [Y23C] gave a protein stability index of 3.26. Variant GRKKYDIDPRNGIPKLTPGDNPSM [Y23S] has a protein stability index of 3.94. GRKKYDIDPRNGIPKLTPGDNPYC [M24C] showed a protein stability index of 3.73. With GRKKYDIDPRNGIPKLTPGDNPYE [M24E] the protein stability index was 4.56. In the case of GRKKYDIDPRNGIPKLTPGDNPYT [M24T], the protein stability index is reported as 4.04. Variant GRKKYDIDPRNGIPKLTPGDNPYL [M24L] has a protein stability index of 3.62. Work on GRKKYDIDPRNGIPKLTPGDNPYS [M24S] yielded a protein stability index of 4.21. With GRKKYDIDPRNGIPKLTPGDNPYR [M24R] the protein stability index was 3.59. Work on GRKKYDIDPRNGIPKLTPGDNPYH [M24H] yielded a protein stability index of 3.76. In the case of GRKKYDIDPRNGIPKLTPGDNPYI [M24I], the protein stability index is reported as 3.46. Variant GRKKYDIDPRNGIPKLTPGDNPYK [M24K] has a protein stability index of 4.03. GRKKYDIDPRNGIPKLTPGDNPYN [M24N] showed a protein stability index of 4.11. For GRKKYDIDPRNGIPKLTPGDNPYW [M24W], the protein stability index was 3.53. For GRKKYDIDPRNGIPKLTPGDNPYY [M24Y], the protein stability index was 3.73. In the case of GRKKYDIDPRNGIPKLTPGDNPYD [M24D], the protein stability index is reported as 4.4. In the case of GRKKYDIDPRNGIPKLTPGDNPYF [M24F], the protein stability index is reported as 3.1. GRKKYDIDPRNGIPKLTPGDNPYG [M24G] gave a protein stability index of 3.5. Work on GRKKYDIDPRNGIPKLTPGDNPYV [M24V] yielded a protein stability index of 4.22. For GRKKYDIDPRNGIPKLTPGDNPYQ [M24Q], the protein stability index was 4.02. With GRKKYDIDPRNGIPKLTPGDNPYA [M24A] the protein stability index was 4.21. GRKKYDIDPRNGIPKLTPGDNPYP [M24P] gave a protein stability index of 3.98. Variant GRKKYDIDPRNGIPKSTPGDNPYM [L16S] has a protein stability index of 3.67. Variant GRKKYDIDPRNGIPKHTPGDNPYM [L16H] has a protein stability index of 3.75. For GRKKYDIDPRNGIPKWTPGDNPYM [L16W], the protein stability index was 2.67. Variant GRKKYDIDPRNGIPKTTPGDNPYM [L16T] has a protein stability index of 3.98. Work on GRKKYDIDPRNGIPKDTPGDNPYM [L16D] yielded a protein stability index of 4.11. GRKKYDIDPRNGIPKETPGDNPYM [L16E] showed a protein stability index of 4.32. Work on GRKKYDIDPRNGIPKATPGDNPYM [L16A] yielded a protein stability index of 4.09. With GRKKYDIDPRNGIPKCTPGDNPYM [L16C] the protein stability index was 3.44. GRKKYDIDPRNGIPKGTPGDNPYM [L16G] gave a protein stability index of 4. Work on GRKKYDIDPRNGIPKQTPGDNPYM [L16Q] yielded a protein stability index of 4.08. In the case of GRKKYDIDPRNGIPKVTPGDNPYM [L16V], the protein stability index is reported as 4. For GRKKYDIDPRNGIPKPTPGDNPYM [L16P], the protein stability index was 3.67. In the case of GRKKYDIDPRNGIPKNTPGDNPYM [L16N], the protein stability index is reported as 4.24. GRKKYDIDPRNGIPKRTPGDNPYM [L16R] showed a protein stability index of 3.59. GRKKYDIDPRNGIPKMTPGDNPYM [L16M] gave a protein stability index of 3.67. In the case of GRKKYDIDPRNGIPKITPGDNPYM [L16I], the protein stability index is reported as 3.47. In the case of GRKKYDIDPRNGIPKFTPGDNPYM [L16F], the protein stability index is reported as 3.11. Work on GRKKYDIDPRNGIPKYTPGDNPYM [L16Y] yielded a protein stability index of 3.22.
